Laboratory results from US12178848B2, “Methods and compositions for the treatment of exocrine pancreatic insufficiency” (Board of Regents, The University of Texas System, priority 2016, dated 2024).

B1: fibroblast growth factor 21 (protein, UniProt Q9NSA1 29-209, looked up)
Fibroblast growth factor 21: HPIPDSSPLLQFGGQVRQRYLYTDDAQQTEAHLEIREDGTVGGAADQSPESLLQLKALKPGVIQILGVKTSRFLCQRPDGALYGSLHFDPEACSFRELLLEDGYNVYQSEAHGLPLHLPGNKSPHRDPAPRGPARFLPLPGLPPALPEPPGILAPQPPDVGSSDPLSMVGPSQGRSPSYAS
notes: human recombinant FGF21 from Novo Nordisk, the native form of the human FGF21

Columns and labels:
AR42J cells = assay: Calcium imaging with fluo4-AM; format: cell-based; details: for block of CCK-mediated calcium release: inhibitor 30 min prior and during imaging: 1 μM PD173074, 10 μM L-364,718, 10 μM U73122, 100 μM 2-APB; for block of calcium release elicited by FGF21: 1 μg/ml FGF21, inhibitor 30 min prior and during imaging: 1 μM PD173074, 10 μM L-364,718, 10 μM U73122, 100 μM 2-APB; for intracellular calcium release (ΔF/F0): 1 μg/ml FGF21 or 100 pM CCK
Experimental: AR42J cells were pre-loaded with 1 μM of the calcium indicator fluo4-AM (Life Technologies) for 30 minutes at 37° C. Where indicated, 1 μM PD173074 (Sigma), 10 μM L-364,718 (Tocris Bioscience), 10 μM U73122 (Tocris Bioscience) or 100 μM 2-APB (Tocris Bioscience) were added during fluo4-AM preloading and to the imaging medium (DMEM without phenol red). Cells were imaged on a BD Pathway 855 bioimager with a 10× objective. Vehicle, FGF21 (1 μg/ml) and CCK (100 pM) were delivered 10 seconds after baseline fluorescence acquisition by an automated fluid delivery mechanism and imaged for a total time of 2 minutes. Calcium release was calculated using Image J as ΔF/F0, where ΔF is the raw fluorescent signal (F) from cells minus their background fluorescence (calculated from a region where no cells and fluorescent signal was expected), and F0 was the average of the first 6 frames before the compound was added. Sample size (n) corresponds to the number of cell clusters measured with each cell cluster containing 5-20 cells.

eIF4E-BP1 = assay: Western blot of pancreatic phospho-eIF4E-BP1; format: in vivo, mouse; details: mice, 1 mg/kg FGF21 or CCK for 15 min
Experimental: (§1) Pancreas was homogenized using Fastprep-24 lysing matrix bead tubes (MP Biomedicals) in 1×RIPA buffer (Cell Signaling Technology) supplemented with a cocktail of protease and phosphatase inhibitors (Roche). Protein lysate concentrations were measured using the DC Protein Assay (Biorad). Equal protein amounts were loaded and electrophoresed in a […] SDS-polyacrylamide gel (Biorad) and transferred to nitrocellulose membranes (Biorad). Membranes were blocked with 5% BSA in TBST for 1 hour. Probing of membranes with antibodies against FGF21, amylase and lipase (Santa Cruz); β-actin (Abcam); p-EIF2α, p-ERK1/2, and p-eIF4E-BP1 (Cell Signaling Technology) was performed overnight at 4° C. Membranes were then incubated with HRP-conjugated secondary antibodies (Cell Signaling Technology) against the primary antibody's host species for 1 hour. Membranes were developed using the Super Signal West Chemiluminescence Kit (Thermo) and signal was detected with an ImageQuant LAS4000 luminescent imager (General Electric). Quantification was done using Image J.

ad-lib fed WT mice = assay: FGF21 protein levels in pancreatic juice and plasma after CCK treatment; format: in vivo, mouse; details: 15 min CCK treatment vs basal
Excerpt: (§2) Fgf21-knockout (KO) mice (Potthoff, et al., Proc Natl Acad Sci USA 106, 10853-10858, 2009), Fgf21-transgenic (Tg) mice (Inagaki, et al., Cell Metab 5, 415-425, 2007), KLB-T and WT littermates were maintained on a C57Bl/6J background. β-Klotho-KO and heterozygous littermates were kept on a mixed C57BL/6J; 129/Sv background (Ding, et al., Cell Metab 16, 387-393, 2012). All mice were housed in a pathogen-free facility and fed a standard chow diet (Harlan Teklad 2916). For fasting refeeding experiments, mice were fasted overnight and then refed for 2 hours with standard chow diet. Acute pancreatitis was induced by administration of seven hourly intraperitoneal injections of 50 μg/kg cerulein (Sigma), whereas mice in the control group were injected with saline. FGF21 in plasma was measured using a mouse FGF21 ELISA kit (Biovendor). Male mice were used for all experiments.
(§3) Mice were injected with vehicle (10 mM Na2HPO4, 2% [w/v] glycerol, pH 7.6) or 1 mg/kg human recombinant FGF21 (Novo Nordisk) subcutaneously twice per day for two consecutive days. Mice were fasted for 6 hours, and pancreatic juice was collected for 15 minutes. The final injection of vehicle or FGF21 was given 1 hour prior to pancreatic juice collection.

PLCβ3 = assay: Western blot of pancreatic phospho-PLCβ; format: in vivo, mouse; details: WT mice, 5 μg/kg CCK (i.p.) for 15 min
Experimental: as §1
(§4) Activation of the CCK-A receptor leads to the phosphorylation of the b isoform of PLC, calcium release, and subsequent secretion. In contrast, FGF receptors activate the γ isoform. To explore whether FGF21 and CCK have different activation profiles for the PLC isoforms, we treated WT mice with vehicle, FGF21, or CCK for 15 min. […]

[1] = test system: pancreatic protein synthesis; assay: Pancreatic protein synthesis, 3H-phenylalanine flooding dose method; format: in vivo, mouse; details: mice, 1 mg/kg FGF21 or 5 mg/kg CCK for 2 hr
Experimental: Pancreatic protein synthesis was measured by the flooding dose method using ^3H-phenylalanine (Sans, et al., American journal of physiology 287, G667-675, 2004).

ERK1/2 = assay: Western blot of pancreatic phospho-ERK1/2; format: in vivo, mouse; details: for ERK1/2 phosphorylation in pancreas (FIG. 4F): WT mice, 1 mg/kg FGF21 or 5 μg/kg CCK (i.p.) for 15 min; for ERK1/2 phosphorylation in pancreas (FIG. 3B): mice, 1 mg/kg FGF21 or 5 mg/kg CCK for 15 min
Experimental: as §1

[2] = test system: Female Swiss Webster mice; assay: ERCP-induced pancreatitis model, histological grading of pancreas; format: in vivo, mouse; details: 1 mg/kg FGF21, 4 subcutaneous injections
Experimental: To evaluate if FGF21 confers a beneficial effect against ERCP-induced pancreatitis, a preclinical study was performed in an established rodent model of ERCP that develops pancreatitis 24 hours after ERCP. Female Swiss Webster mice were treated with either 4 subcutaneous injections of vehicle or 1 mg/kg FGF21 in the following way: 1 injection the day prior to ERCP, 2 injections the day of the ERCP procedure, and 1 injection the day following ERCP. Mice were subjected to the ERCP procedure, which consisted of a high-pressure infusion of a radiocontrast agent through the pancreatic duct.

PLCγ1 = assay: Western blot of pancreatic phospho-PLCγ; format: in vivo, mouse; details: WT mice, 1 mg/kg FGF21 for 15 min
Experimental: as §1, §4

[3] = test system: Klb^fl/fl and Klb^Cela1−/− mice; assay: Pancreatic juice collection: flow rate and amylase levels; format: in vivo, mouse; details: 1 mg/kg FGF21 for 2 consecutive days
Experimental: as §3
To explore whether FGF21 also acts directly on pancreatic acinar cells in vivo, we generated an inducible acinar cell-specific β-Klotho (Klb) knockdown mouse model in which Cre recombinase expression was under the control of a modified estrogen receptor and the elastase promoter. Efficient knockdown of Klb expression following tamoxifen administration was confirmed in floxed Klb mice carrying the Cre allele (Klb^Cela1−/−). There was no change in plasma FGF21 concentrations in Klb^Cela1−/− mice under fasted conditions. Similar to the Fgf21 KO mice, the Klb^Cela1−/− mice had increased zymogen granule density and pancreatic digestive enzyme concentrations. To test whether FGF21 acts directly on pancreatic acinar cells to stimulate secretion, Klb^fl/fl and Klb^Cela1−/− mice were treated with either vehicle or FGF21 and pancreatic juice collected for 15 min. […] Thus, the basis for the remaining effect of FGF21 on pancreatic juice flow rate requires further investigation.

Fgf21-KO mice [4] = assay: Western blot of pancreatic amylase and lipase levels; format: in vivo, mouse; details: 1 mg/kg recombinant FGF21 twice per day for two consecutive days
Experimental: as §3
as §1, with “Membranes were then incubated with HRP-conjugated secondary antibodies (Cell Signaling Technology) against the primary antibody's host species for 1 hour.” left out

secretin = assay: Blood concentration of secretin; format: in vivo, mouse; details: mice treated with FGF21
[5] = test system: mouse primary acinar cells; assay: Cell secretion assay, amylase secretion; format: cell-based; details: 1 μg/mL FGF21 for 30 min
Experimental: Primary acinar cells were prepared by modification of a published protocol (Williams, et al., The American journal of physiology 235, 517-524, 1978). Briefly, mice were sacrificed by decapitation followed by dissection and washing of the pancreas in 1×PBS. Pancreas digestion medium (0.75 mg/ml collagenase type XI-S [Sigma], 0.1 mg/ml soybean trypsin inhibitor [Sigma], 1% BSA in DMEM) was injected into the pancreatic parenchyma with a 30 g syringe. Pancreas was then incubated in digestion medium for 20-40 minutes with constant mixing using serological pipets of decreasing diameters. Cells were filtered through a 100 μm strainer and washed 3 times with incubation medium (0.1 mg/ml soybean trypsin inhibitor, 1% BSA in DMEM) via centrifugation at 50×g for 3 minutes per wash. Cells were plated and allowed to recover for 2 hours in incubation medium at 37° C.
Primary acinar and AR42J cells were treated with vehicle, FGF21 (1 μg/ml for both primary acinar cells and AR42J) or CCK (10 pM for primary acinar cells and 100 pM for AR42J cells [Phoenix Pharmaceuticals]) for 30 minutes at 37° C. Amylase levels in both the cell medium and cells were analyzed using an Amylase Assay Kit (Abcam).

[6] = test system: Fgf21-transgenic (Tg) mice; assay: Cerulein-induced pancreatitis (CIP), ER stress markers; format: in vivo, mouse; details: chronic FGF21 via liver-specific transgene, supraphysiologic circulating levels; cerulein 50 μg/kg, seven hourly i.p. injections
Excerpt: as §2, with “experiments. […]” for “experiments.”
Pancreas was homogenized using Fastprep-24 lysing matrix bead tubes (MP Biomedicals) in 1×RIPA buffer (Cell Signaling Technology) supplemented with a cocktail of protease and phosphatase inhibitors (Roche). Protein lysate concentrations were measured using the DC Protein Assay (Biorad). […] Membranes were developed using the Super Signal West Chemiluminescence Kit (Thermo) and signal was detected with an ImageQuant LAS4000 luminescent imager (General Electric). Quantification was done using Image J.

Fgf21-KO mice [7] = assay: H&E staining of pancreas, eosinophilic area fraction; format: in vivo, mouse; details: 1 mg/kg recombinant FGF21 twice per day for two consecutive days
Experimental: as §3
Mouse pancreas was fixed in 10% neutral buffered formalin overnight and then paraffin embedded, sectioned and hematoxylin and eosin stained. For fresh frozen histology, the pancreas was quickly dissected, snap frozen in cooled isopentane and sectioned at 14-16 μm. The sections were then fixed in 10% neutral buffered formalin for 15 min at 4° C., washed 3 times in 1×PBS and mounted with Vectashield mounting medium with DAPI (Vector Laboratories). Images were acquired with a Zeiss Axioscan Z1 slide scanner at a 20× magnification. Quantification of the eosinophilic area was performed using Image J.

[8] = Klb^Cela1−/− mice, juice collected for 15 min

Row | Molecule | block of CCK-mediated calcium release (AR42J cells; 100 pM CCK) | block of calcium release elicited by FGF21 (AR42J cells) | phosphorylation of eIF4E-BP1 in pancreas (eIF4E-BP1) | 3H-phenylalanine incorporation into pancreatic protein (pancreatic protein synthesis) [1] | intracellular calcium release (ΔF/F0) (AR42J cells) | ERK1/2 phosphorylation in pancreas (FIG. 4F) (ERK1/2) | ERK1/2 phosphorylation in pancreas (FIG. 3B) (ERK1/2) | other results
1 | NCCOB(c1ccccc1)c1ccccc1 [2-APB] | blocked | blocked |  |  |  |  |  | 
2 | CN1C(=O)[C@@H](NC(=O)c2cc3ccccc3[nH]2)N=C(c2ccccc2)c2ccccc21 [L-364,718] | blocked | not |  |  |  |  |  | 
3 | CCN(CC)CCCCNc1ncc2cc(-c3cc(OC)cc(OC)c3)c(NC(=O)NC(C)(C)C)nc2n1 [PD173074] | not | blocked |  |  |  |  |  | 
4 | COc1ccc2c(c1)CC[C@@H]1[C@@H]2CC[C@]2(C)[C@@H](NCCCCCCN3C(=O)C=CC3=O)CC[C@@H]12 [U73122] | blocked | blocked |  |  |  |  |  | 
5 | cholecystokinin [CCK] |  |  | increased | significantly increased | triggered intracellular calcium release | induced | induced | change of FGF21 in the blood (ad-lib fed WT mice): without any change; increase in the concentration of FGF21 in the pancreatic juice (ad-lib fed WT mice): 3 fold; phosphorylation of PLCβ in pancreas (PLCβ3): induced; time to peak calcium levels after treatment (AR42J cells; 100 pM CCK): ≤ 30 s
6 | B1 |  |  | no effect | no significant effect | triggered intracellular calcium release | induced | induced | edema after ERCP, histological grading [2]: decreased; inflammation after ERCP, histological grading [2]: decreased; phosphorylation of PLCγ in pancreas (PLCγ1): induced; effect on digestive enzyme secretion (amylase in pancreatic juice) in Klb^Cela1−/− mice [3, 8]: absent; effect on pancreatic juice flow rate in Klb^Cela1−/− mice [3, 8]: significantly reduced but not eliminated; digestive enzyme secretion into pancreatic juice ([3]; control mice): stimulate; pancreatic juice flow ([3]; control mice): stimulate; pancreatic digestive enzyme levels (amylase, lipase), immunoblot (Fgf21-KO mice [4]): reduction; blood concentrations of secretin (secretin): did not increase; time to peak calcium levels after treatment (AR42J cells; 1 μg/ml FGF21): 60 to 120 s; amylase (digestive enzyme) secretion from acinar cells [5]: Induce Pancreatic Digestive Enzyme Secretion; ER stress parameters (p-eIF2α, Atf4, Chop, Bip mRNA) in response to CIP [6]: suppressed; pancreatic eosinophilic area fraction (Fgf21-KO mice [7]): decreased the pancreatic eosinophilic area fraction in Fgf21-KO mice to wild type (WT) levels
